Experimental data taken from publication PMC4489214.

Target: LRRTM2 expressed on K562 cells (mouse) (UniProt Q8BGA3)
Assay: cell adhesion assay; K562 'prey' cells (NRX1-alpha variant, beta-Gal, RFP) mixed with biotinylated K562 'bait' cells (LRRTM2 or NL3(A2), AP-GFP, BirA-ER) on neutravidin magnetic beads; 60 min at RT in DMEM without serum; bound cells read by beta-Gal activity

Sequence of UniProt Q8BGA3 (Q8BGA3 34-515): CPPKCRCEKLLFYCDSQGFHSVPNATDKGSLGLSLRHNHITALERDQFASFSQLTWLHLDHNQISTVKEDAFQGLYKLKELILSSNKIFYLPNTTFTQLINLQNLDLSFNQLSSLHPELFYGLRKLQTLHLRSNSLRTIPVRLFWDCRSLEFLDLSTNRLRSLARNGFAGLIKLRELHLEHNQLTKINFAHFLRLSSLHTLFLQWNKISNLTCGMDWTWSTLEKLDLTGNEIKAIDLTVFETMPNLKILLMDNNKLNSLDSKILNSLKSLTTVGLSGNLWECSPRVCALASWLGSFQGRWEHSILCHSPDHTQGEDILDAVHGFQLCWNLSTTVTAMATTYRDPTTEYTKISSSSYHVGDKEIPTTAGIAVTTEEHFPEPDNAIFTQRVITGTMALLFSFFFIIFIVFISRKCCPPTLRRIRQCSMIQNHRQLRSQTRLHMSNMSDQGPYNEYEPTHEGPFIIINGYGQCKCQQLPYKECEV

fold increase of adhesion against the AS6+ isoforms | Substance
3 fold | NRX1alpha lacking the insertions at AS3 and AS6, expressed on K562 cells (from UniProt Q9CS84 31-1514) (receptor)
3 fold | NRX1alpha with the insertion at AS3 and lacking the insertion at AS6, expressed on K562 cells (from UniProt Q9CS84 31-1514) (receptor)
